Usually EC50 stands for the concentration that produces a half-maximal response.

Where a chain is given by its changes, count along the chain named. Names may count otherwise.

To fix the notation:
T1: recombinant human IL-7Rα-His6-Fc (human, UniProt P16871 21-239)
T1 construct: also called hIL-7R; not shown: His6 tag; Fc (captured by anti-human IgG Fc)
T1 chain: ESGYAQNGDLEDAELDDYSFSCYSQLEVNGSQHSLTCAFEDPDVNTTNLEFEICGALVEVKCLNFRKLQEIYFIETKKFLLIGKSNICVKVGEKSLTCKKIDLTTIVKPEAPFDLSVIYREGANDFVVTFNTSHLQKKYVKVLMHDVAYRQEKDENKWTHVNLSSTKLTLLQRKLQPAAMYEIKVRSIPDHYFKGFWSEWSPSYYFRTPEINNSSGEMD

B1: V7R-2B6 (VHH)
VHH: EVQLVESGGGLVQAGGSLRLSCESSARTFSDDAMGWFRQAAGKEREFLAAINWSGAVTHYGDSVKGRFTISRDNAKNTVYLQMDSLKPEDTAVYYCAEDYDTDVWQHWGQGTQVTVSS
notes: llama ICVD, primary clone, expressed in E. coli TG1; not shown: C-terminal FLAG and 6xHis tags from vector pMEK222
B2: V7R-2F6 (VHH)
VHH: EVQLVESGGGLVQAGGSLRLSCESSIGTFSSDAMGWFRQAPGKEREFLAAIGWSGTVTHYSDSVQGRFTISRDNAKNTVYLQMNSLKSEDTGRYYCAEDYDTDVWQYWGQGTQVTVSS
notes: as for B1
B3: V7R-3B5 (VHH)
VHH: B2 VHH with A14V, G27S, T56A
notes: as for B1
B4: V7R-4F6 (VHH)
VHH: B2 VHH with G27S, S30G, L48V, I51T, T56A, Q65K, R93T
notes: as for B1
B5: V7R-2E5 (VHH)
VHH: B2 VHH with A14P, G27S, T56A
notes: as for B1
B6: V7R-6C12 (VHH)
VHH: B2 VHH with G27S, T56A, Q65K, D101V
notes: llama ICVD, primary clone, expressed in E. coli TG1; also called IL-7R-6C12; not shown: C-terminal FLAG and 6xHis tags from vector pMEK222
B7: ID-A24U (VHH)
VHH: B2 VHH with G27S, R45L, F47W, T56A, Q65K, K87R, S88A
notes: V7R-2E9 with R45L, F47W, Q65K, K87R, S88A
B8: ID-A26U (VHH)
VHH: B2 VHH with G27S, E44G, R45L, T56A, Q65K, K87R, S88A
notes: V7R-2E9 with E44G, R45L, Q65K, K87R, S88A
B9: ID-A32U (VHH)
VHH: B2 VHH with G27S, E44G, T56A, K87R
notes: V7R-2E9 with E44G, K87R
B10: ID-A35U (VHH)
VHH: B2 VHH with G27S, T56A, Q65K, S88A
notes: V7R-2E9 with Q65K, S88A
B11: ID-A36U (VHH)
VHH: B2 VHH with G27S, T56A, K87R, S88A
notes: V7R-2E9 with K87R, S88A
B12: ID-A33U (VHH)
VHH: B2 VHH with G27S, E44G, T56A, S88A
notes: V7R-2E9 with E44G, S88A
B13: ID-A37U (VHH)
VHH: B2 VHH with G27S, E44G, T56A, Q65K, K87R
notes: V7R-2E9 with E44G, Q65K, K87R
B14: ID-A38U (VHH)
VHH: B2 VHH with G27S, E44G, T56A, Q65K, S88A
notes: V7R-2E9 with E44G, Q65K, S88A
B15: ID-A27U (VHH)
VHH: B2 VHH with G27S, E44G, R45L, F47W, T56A, K87R, S88A
notes: V7R-2E9 with E44G, R45L, F47W, K87R, S88A
B16: ID-A39U (VHH)
VHH: B2 VHH with G27S, E44G, T56A, K87R, S88A
notes: V7R-2E9 with E44G, K87R, S88A
B17: ID-A23U (VHH)
VHH: B2 VHH with G27S, E44G, R45L, F47W, T56A, Q65K, K87R, S88A
notes: V7R-2E9 with E44G, R45L, F47W, Q65K, K87R, S88A
B18: ID-A25U (VHH)
VHH: B2 VHH with G27S, E44G, F47W, T56A, Q65K, K87R, S88A
notes: V7R-2E9 with E44G, F47W, Q65K, K87R, S88A
B19: ID-A34U (VHH)
VHH: B2 VHH with G27S, T56A, Q65K, K87R
notes: V7R-2E9 with Q65K, K87R
B20: ID-A29U (VHH)
VHH: B2 VHH with G27S, E44G, R45L, F47W, T56A, Q65K, K87R
notes: V7R-2E9 with E44G, R45L, F47W, Q65K, K87R
B21: ID-A31U (VHH)
VHH: B2 VHH with G27S, E44G, T56A, Q65K
notes: V7R-2E9 with E44G, Q65K
B22: ID-A30U (VHH)
VHH: B2 VHH with G27S, E44G, T56A, Q65K, K87R, S88A
notes: V7R-2E9 with E44G, Q65K, K87R, S88A
B23: ID-A28U (VHH)
VHH: B2 VHH with G27S, E44G, R45L, F47W, T56A, Q65K, S88A
notes: V7R-2E9 with E44G, R45L, F47W, Q65K, S88A
B24: ID-A2U (VHH)
VHH: B2 VHH with E23A, G27S, T56A
notes: V7R-2E9 with E23A; produced from E. coli
B25: ID-A19U (VHH)
VHH: B2 VHH with G27S, T56A, G92A
notes: V7R-2E9 with G92A; produced from E. coli
B26: ID-A17U (VHH)
VHH: B2 VHH with G27S, T56A, S88A
notes: V7R-2E9 with S88A; produced from E. coli
B27: ID-A14U (VHH)
VHH: B2 VHH with G27S, T56A, Q65K
notes: V7R-2E9 with Q65K; produced from E. coli
B28: ID-A6U (VHH)
VHH: B2 VHH with G27S, F37V, T56A
notes: V7R-2E9 with F37V; produced from E. coli
B29: ID-A11U (VHH)
VHH: B2 VHH with G27S, F47W, T56A
notes: V7R-2E9 with F47W; produced from E. coli
B30: ID-A16U (VHH)
VHH: B2 VHH with G27S, T56A, K87R
notes: V7R-2E9 with K87R; produced from E. coli
B31: ID-A20U (VHH)
VHH: B2 VHH with G27S, T56A, R93V
notes: V7R-2E9 with R93V; produced from E. coli
B32: ID-A15U (VHH)
VHH: B2 VHH with G27S, T56A, V79L
notes: V7R-2E9 with V79L; produced from E. coli
B33: ID-A7U (VHH)
VHH: B2 VHH with G27S, E44G, R45L, F47W, L48V, A49S, T56A
notes: V7R-2E9 with 44 to 49 EREFLA to GLEWS (so in the source); produced from E. coli
B34: ID-A5U (VHH)
VHH: B2 VHH with I26G, G27S, T56A
notes: V7R-2E9 with I26G; produced from E. coli
B35: ID-A18U (VHH)
VHH: B2 VHH with G27S, T56A, S88T
notes: V7R-2E9 with S88T; produced from E. coli
B36: ID-A4U (VHH)
VHH: B2 VHH with S24A, G27S, T56A
notes: V7R-2E9 with S24A; produced from E. coli
B37: ID-A13U (VHH)
VHH: B2 VHH with G27S, A49S, T56A
notes: V7R-2E9 with A49S; produced from E. coli
B38: ID-A10U (VHH)
VHH: B2 VHH with G27S, R45L, T56A
notes: V7R-2E9 with R45L; produced from E. coli
B39: ID-A12U (VHH)
VHH: B2 VHH with G27S, L48V, T56A
notes: V7R-2E9 with L48V; produced from E. coli
B40: ID-A21U (VHH)
VHH: B2 VHH with G27S, T56A, Q113L
notes: V7R-2E9 with Q113L; produced from E. coli
B41: ID-A9U (VHH)
VHH: B2 VHH with G27S, E44G, T56A
notes: V7R-2E9 with E44G; produced from E. coli
B42: ID-A8U (VHH)
VHH: B2 VHH with G27S, E44G, R45L, F47W, T56A
notes: V7R-2E9 with 44 to 47 EREF to GLEW; produced from E. coli

One test deals with T1, recombinant human IL-7Rα-His6-Fc. Briefly: IL-7/IL-7R neutralising ELISA; inhibition of IL-7 binding to IL-7R. The protocol: A 7-point dilution series of the clones was prepared in 1% BSA (at 2× the assay concentration) starting at 300 nM and using a 3.2 dilution factor. […] Block buffer alone was also added to each plate as blank. […] TMB reaction was stopped after 30 minutes.
EC₅₀ values were generated in Graphpad prism using the ELISA signal blank corrected A450 data and ‘log(inhibitor) vs. response—Variable slope (four parameters)’ to fit curves and generate EC₅₀.
For orientation: In an ELISA, binding on a coated surface is turned into a signal by an enzyme label.
B1: the EC50 stood at 0.264 nM.

Turning to B2, the EC50 amounted to 0.361 nM.

Take B3: the EC50 stood at 0.222 nM.

On to B4, for which the EC50 worked out at 0.259 nM.

Take B5: the EC50 was 0.64 nM.

B6: the EC50 was found to be 0.416 nM.

The target is the same in the next test. Briefly: IL-7/IL-7Rα-His6-Fc ELISA; inhibition of IL-7 binding to IL-7R.
For B7, the EC50 is 0.819 nM.

Regarding B8, the EC50 is 0.841 nM.

Consider B9, for which the EC50 was 0.367 nM.

For the molecule B10, the half-maximal effective concentration (EC50) was found to be 0.849 nM.

With B11, the EC50 is 0.797 nM.

For B12, the EC50 is 0.429 nM.

For the molecule B13, the EC50 was 0.845 nM.

B14: the EC50 is 0.789 nM.

Take B15: the EC50 worked out at 0.395 nM.

As for B16, the EC50 was determined as 0.411 nM.

Take B17: the EC50 amounted to 0.854 nM.

Consider B18, for which the EC50 was 0.835 nM.

On to B19, for which the EC50 was 0.376 nM.

As to B20, the EC50 came out at 0.476 nM.

For the molecule B21, the EC50 was 0.336 nM.

B22: the EC50 is 0.362 nM.

For the molecule B23, the EC50 came out at 0.46 nM.

For the next test the target is unchanged. Briefly: IL-7/IL-7R neutralisation ELISA; inhibition of IL-7 binding to IL-7R. The protocol:
A 7-point dilution series of the clones was prepared in 1% BSA (at 2× the assay concentration) starting at 300 nM and using a 3.2 dilution factor. […] Block buffer alone was also added to each plate as blank. […] TMB reaction was stopped after 30 minutes. […]
As to B24, the EC50 came to 0.475 nM.

As to B25, the EC50 turned out to be 0.188 nM.

Take B26: the EC50 was 0.493 nM.

On to B27, for which the EC50 worked out at 0.15 nM.

B28: the EC50 is 0.194 nM.

For the molecule B29, the EC50 was 0.175 nM.

Regarding B30, the EC50 is 0.446 nM.

For the molecule B31, the EC50 came out at 0.139 nM.

As for B32, the EC50 worked out at 0.146 nM.

B33: the EC50 is 0.513 nM.

For the molecule B34, the EC50 worked out at 0.49 nM.

B35: the concentration for a half-maximal effect (EC50) stood at 0.214 nM.

Turning to B36, the EC50 amounted to 0.489 nM.

Consider B37, for which the EC50 is 0.615 nM.

For B38, the EC50 amounted to 0.529 nM.

B39: the EC50 came to 0.179 nM.

As to B40, the EC50 turned out to be 0.436 nM.

With B41, the EC50 was 0.168 nM.

For B42, the EC50 is 0.604 nM.

The values above are taken from US20220363769A1 (SORRISO PHARMACEUTICALS, published 2022).
